A value given as a limit tells only on which side of the number the result lay.

The target of the assay is T1, HLA-A*02:01 (human).
T1 construct: monomers captured on streptavidin plates; also called MHC class I
Put plainly: UV peptide exchange ELISA. The text has this:
Candidate peptides for T cell based therapies according to the present invention were further tested for their MHC binding capacity (affinity). The individual peptide-MHC complexes were produced by UV-ligand exchange, where a UV-sensitive peptide is cleaved upon UV-irradiation, and exchanged with the peptide of interest as analyzed. Only peptide candidates that can effectively bind and stabilize the peptide-receptive MHC molecules prevent dissociation of the MHC complexes. To determine the yield of the exchange reaction, an ELISA was performed based on the detection of the light chain (p2m) of stabilized MHC complexes.
96 well MAXISorp plates (NUNC) were coated over night with 2 μg/ml streptavidin in PBS at room temperature, washed 4× and blocked for 1 h at 37° C. in 2% BSA containing blocking buffer. […] Peptide-MHC monomers of the UV-exchange reaction were diluted 100 fold in blocking buffer. Samples were incubated for 1h at 37° C., washed four times, incubated with 2 μg/ml HRP conjugated anti-p2m for 1h at 37° C., washed again and detected with TMB solution that is stopped with […]. Absorption was measured at 450 nm.
YQQAQVPSV registered a peptide exchange yield of 50 to 75%. With FTLGNVVGMYL, the peptide exchange yield was ≥ 75%. Next, LLQEGQALEYV: 20 to 50%; ALPLFVITV: 50 to 75%; SLLDEIRAV: 50 to 75%. As for YLMEGSYNKVFL, the figure is 20 to 50%; as for KIFEMLEGV, 50 to 75%; as for KILDADIQL, ≥ 75%. KMLDGASFTL came in with a peptide exchange yield of 50 to 75%.

Molecule ALQDVPLSSV showed a peptide exchange yield of 50 to 75%.

Turning to FLSSLTETI, the peptide exchange yield lay in the range of 50 to 75%. In turn, GLTSTNAEV had a peptide exchange yield of 20 to 50%.

For the molecule KVLNELYTV, the peptide exchange yield was 50 to 75%. As for ALAQYLITA, the figure is 50 to 75%; as for GLVGNPLPSV, ≥ 75%; as for KLIESKHEV, 20 to 50%. Next, NLPEYLPFV: 50 to 75%; FLFDEEIEQI: 50 to 75%; ALTEIAFVV: ≥ 75%.

GAAKDLPGV registered a peptide exchange yield of 20 to 50%. Next, GLFADLLPRL: 50 to 75%; FGLDLVTEL: 50 to 75%. Next, YLMDINGKMWL: 50 to 75%; SLWPDPMEV: 50 to 75%; FLIANVLYL: 10 to 20%. For the molecule RVANLHFPSV, the peptide exchange yield was in the range of 50 to 75%. Regarding SLVGLLLYL, the peptide exchange yield was ≥ 75%. Next, TLFFQQNAL: 20 to 50%; LLLNAVLTV: 20 to 50%. RQISIRGIVGV: the peptide exchange yield lay in the range of 50 to 75%. As for QLLDADGFLNV, the figure is 50 to 75%. Next, ALQRKLPYV: 50 to 75%; ALLDQQGSRWTL: 50 to 75%. As for KVLEVTEEFGV, the figure is 50 to 75%; as for KTINKVPTV, 50 to 75%; as for YLLPEEYTSTL, ≥ 75%. Turning to YLYSVEIKL, the peptide exchange yield is ≥ 75%. For the molecule ALGPEGGRV, the peptide exchange yield was 20 to 50%. As for KLFDVDEDGYI, the figure is 50 to 75%; as for FLIDDKGYTL, 20 to 50%; as for YLNHLEPPV, 50 to 75%.

Molecule RLQETLSAA registered a peptide exchange yield of 50 to 75%. Consider VLYSYTIITV, for which the peptide exchange yield fell in the range of 20 to 50%. In turn, ILFEDIFDV came in with a peptide exchange yield of 50 to 75%. Next, LLLPLQILL: 50 to 75%. As for YLFENISQL, the figure is 50 to 75%; as for RLVDYLEGI, 50 to 75%. Next, ALLPQPKNLTV: 50 to 75%; LLFGSVQEV: 50 to 75%; ALDDGTPAL: 20 to 50%. Turning to LLWAGTAFQV, the peptide exchange yield lay in the range of 50 to 75%. Next, GLFPVTPEAV: 50 to 75%. Turning to MLLEAPGIFL, the peptide exchange yield lay in the range of 50 to 75%. Regarding LLDSASAGLYL, the peptide exchange yield was 50 to 75%. For the molecule SLNDEVPEV, the peptide exchange yield lay in the range of 20 to 50%. The molecule SLYPGTETMGL registered a peptide exchange yield of 50 to 75%.

The molecule ALDEMGDLLQL had a peptide exchange yield of 50 to 75%.

For the molecule FLATFPLAAV, the peptide exchange yield was ≥ 75%.

VLQEGKLQKLAQL: the peptide exchange yield lay in the range of 50 to 75%. In the case of ALLEGVNTV, the peptide exchange yield was 50 to 75%. Next, KISPVTFSV: 50 to 75%; KIAENVEEV: 20 to 50%. In the case of FQIDPHSGLVTV, the peptide exchange yield lay within 20 to 50%.

For the origin of these results see patent publication US20170037110A1 (IMMATICS BIOTECHNOLOGIES, published 2017).
